Measured values published in article PMC4897640, “Functional diversity of family 3 β-glucosidases from thermophilic cellulolytic fungus Humicola insolens Y1” (Scientific Reports, 2016).
Each block holds one molecule with its values, some of them ahead of it.

Legend:
HiBgl3B = target: T1, HiBgl3B (Mycothermus thermophilus, UniProt A0A191KCR2); assay: pNPG hydrolysis, Dixon plot; type: biochemical; details: read-out: Ki (mM) / pNPG; substrate pNPG 0.75 and 1 mM, glucose 5-50 mM; product inhibition, mode not stated
T1 construct: GenBank printed as KT203372, same as Hibgl3C, so probably a misprint of KT203371

HiBgl3A = HiBgl3A (Mycothermus thermophilus, UniProt A0A191KCR1); assay: pNPG hydrolysis, Dixon plot; type: biochemical; details: read-out: Ki (mM) / pNPG; substrate pNPG 0.75 and 1 mM, glucose 5-50 mM; product inhibition, mode not stated
Chain of HiBgl3A (A0A191KCR1 entry or part of it): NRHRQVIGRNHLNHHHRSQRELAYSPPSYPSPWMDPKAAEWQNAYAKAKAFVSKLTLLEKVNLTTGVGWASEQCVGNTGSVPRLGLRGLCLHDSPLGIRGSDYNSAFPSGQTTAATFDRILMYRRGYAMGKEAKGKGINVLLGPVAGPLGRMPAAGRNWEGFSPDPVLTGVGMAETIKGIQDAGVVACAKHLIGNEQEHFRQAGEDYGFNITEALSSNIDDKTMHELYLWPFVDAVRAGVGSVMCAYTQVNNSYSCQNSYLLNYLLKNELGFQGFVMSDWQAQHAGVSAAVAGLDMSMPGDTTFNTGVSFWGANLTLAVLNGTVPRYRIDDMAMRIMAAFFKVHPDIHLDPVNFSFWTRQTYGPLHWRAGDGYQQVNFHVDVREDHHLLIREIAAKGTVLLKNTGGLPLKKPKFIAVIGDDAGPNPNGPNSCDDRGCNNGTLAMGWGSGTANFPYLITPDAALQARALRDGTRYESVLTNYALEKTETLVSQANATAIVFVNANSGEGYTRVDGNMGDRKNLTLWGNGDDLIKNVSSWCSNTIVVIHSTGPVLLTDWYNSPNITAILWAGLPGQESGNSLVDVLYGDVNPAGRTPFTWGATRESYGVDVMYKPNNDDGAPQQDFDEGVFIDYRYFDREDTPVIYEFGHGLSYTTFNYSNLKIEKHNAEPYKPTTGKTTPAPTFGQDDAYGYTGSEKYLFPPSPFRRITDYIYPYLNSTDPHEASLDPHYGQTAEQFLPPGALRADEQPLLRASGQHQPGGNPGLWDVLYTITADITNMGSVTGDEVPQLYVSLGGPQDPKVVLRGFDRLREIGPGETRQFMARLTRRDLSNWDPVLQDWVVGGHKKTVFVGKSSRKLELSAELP

HiBgl3C = target: T2, HiBgl3C (Mycothermus thermophilus, UniProt A0A191KCR0); assay: pNPG hydrolysis, Dixon plot; type: biochemical; details: read-out: Ki (mM) / pNPG; substrate pNPG 0.75 and 1 mM, glucose 5-50 mM; product inhibition, mode not stated
T2 construct: the same GenBank number is also printed for Hibgl3B
T2 sequence (A0A191KCR0 18-733): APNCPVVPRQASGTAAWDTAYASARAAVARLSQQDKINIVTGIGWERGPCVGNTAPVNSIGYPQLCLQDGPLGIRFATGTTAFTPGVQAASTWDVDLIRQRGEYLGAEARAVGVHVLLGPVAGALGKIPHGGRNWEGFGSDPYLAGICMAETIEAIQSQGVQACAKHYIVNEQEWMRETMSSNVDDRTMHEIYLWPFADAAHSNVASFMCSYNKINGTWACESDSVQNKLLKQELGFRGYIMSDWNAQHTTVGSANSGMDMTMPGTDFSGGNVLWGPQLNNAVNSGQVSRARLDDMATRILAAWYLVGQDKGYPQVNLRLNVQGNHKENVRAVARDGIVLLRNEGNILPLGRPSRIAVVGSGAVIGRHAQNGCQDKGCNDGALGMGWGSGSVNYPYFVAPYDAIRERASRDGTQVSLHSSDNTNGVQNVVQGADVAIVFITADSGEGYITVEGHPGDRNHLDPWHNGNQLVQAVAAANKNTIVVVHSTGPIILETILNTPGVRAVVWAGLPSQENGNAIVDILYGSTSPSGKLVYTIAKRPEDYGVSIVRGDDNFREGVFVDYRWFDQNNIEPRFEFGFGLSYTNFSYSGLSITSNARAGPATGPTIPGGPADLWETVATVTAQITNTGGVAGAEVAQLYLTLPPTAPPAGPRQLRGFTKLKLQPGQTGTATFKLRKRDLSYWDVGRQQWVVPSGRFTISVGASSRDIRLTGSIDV

purified protein = substrate: O=[N+]([O-])c1ccc(O[C@@H]2O[C@H](CO)[C@@H](O)[C@H](O)[C@H]2O)cc1; assay: purified protein; details: 100 mM Na2HPO4-citric acid
[1] = optimal conditions (pH 6.0, 50 °C), pH 6.0, 50.0 °C

Ki (HiBgl3B): 55.2 mM | Ki (HiBgl3A): 25 mM | Ki (HiBgl3C): 37.1 mM
Molecule: OC[C@H]1OC(O)[C@H](O)[C@@H](O)[C@@H]1O (some centres unmarked) [glucose]

B1: HiBgl3B (Mycothermus thermophilus) (protein)
chain: RVVEPRDPVPQGYHAASYYPAPHGGWVSSWREAYEKAYALVSQMTLAEKVNITSGVGIYMGPCVGNTGSVDRLGFPQLCLQDSALGVASADNVTAFPAGITTGATWDKQLMYARGVAIGKEFRGKGANIHLGPSVGPLGRKPLGGRNWEGFGSDPVLQGKAAALHIRGVQEQGIIATIKHLVGNEQEMYRMYHIFQEGYSANIDDRTLHELYLWPFAEAVRAGVGAAMTAYNAVNGSACSQNSYLINGILKDELGFQGLVMSDWLSHISGVGSALAGLDLNMPGDTNIPLFGNSLWQYELTRAVLNGSVPVDRLNDMATRVVATWYKFGQDKNHPRPNFSSNTRSRDGPLYPGALFSPSGQVNWFVNVQEDHYLVARQVAQDAITLLKNNDSLLPLDAGDLTGGKLSVFGTDAQVNPDGPNSCLARACNKGTLGMGWGSGIADYPYMDDPIGAIRKRVPDVKFYNTDSFPWFFGTPENDEVAMVFISSDSGENTLTVEGNHGDRDSAKLRAWHDGDKLVQKVAEKFKNVIVVVHTVGPLDLEPWIELPSVKAVLFAHLPGQEAGESLTNVLFGDVSPSGHLPYSITRKASDLPDSIANLKGFTWGQVQDTYSEGLYIDYRYLQKHSIQPRFAFGHGLSYTNFSFTNATIRAITTPLSVTPPAPPATRPASVVAKYSTDIPPASEAYEPAGFSRIWRYLYPWLSKSDADAAHAIGTSKSKTYPYPPGYSTVQRASFPPAGGGEGGNPALWDVAYEVTVRVTNTGKRPGKASAQLYLQFPEGIEYDTPVLQLRDFEKTKELQPGESQELKLTLTRKDVSVWDVRRQNWVVPTAIDDKKGFTAWVGEASDKLKVACYTGEGRCVEGAKQPV
Km (purified protein; [1]): 1510 µM | Vmax (purified protein; [1]): 25.5 µmol/min/mg | kcat (purified protein; [1]): 40.4 s⁻¹ | kcat/Km (purified protein; [1]): 26800 M⁻¹ s⁻¹

B2: HiBgl3B (Mycothermus thermophilus; I81W) (protein)
chain: RVVEPRDPVPQGYHAASYYPAPHGGWVSSWREAYEKAYALVSQMTLAEKVNITSGVGWYMGPCVGNTGSVDRLGFPQLCLQDSALGVASADNVTAFPAGITTGATWDKQLMYARGVAIGKEFRGKGANIHLGPSVGPLGRKPLGGRNWEGFGSDPVLQGKAAALHIRGVQEQGIIATIKHLVGNEQEMYRMYHIFQEGYSANIDDRTLHELYLWPFAEAVRAGVGAAMTAYNAVNGSACSQNSYLINGILKDELGFQGLVMSDWLSHISGVGSALAGLDLNMPGDTNIPLFGNSLWQYELTRAVLNGSVPVDRLNDMATRVVATWYKFGQDKNHPRPNFSSNTRSRDGPLYPGALFSPSGQVNWFVNVQEDHYLVARQVAQDAITLLKNNDSLLPLDAGDLTGGKLSVFGTDAQVNPDGPNSCLARACNKGTLGMGWGSGIADYPYMDDPIGAIRKRVPDVKFYNTDSFPWFFGTPENDEVAMVFISSDSGENTLTVEGNHGDRDSAKLRAWHDGDKLVQKVAEKFKNVIVVVHTVGPLDLEPWIELPSVKAVLFAHLPGQEAGESLTNVLFGDVSPSGHLPYSITRKASDLPDSIANLKGFTWGQVQDTYSEGLYIDYRYLQKHSIQPRFAFGHGLSYTNFSFTNATIRAITTPLSVTPPAPPATRPASVVAKYSTDIPPASEAYEPAGFSRIWRYLYPWLSKSDADAAHAIGTSKSKTYPYPPGYSTVQRASFPPAGGGEGGNPALWDVAYEVTVRVTNTGKRPGKASAQLYLQFPEGIEYDTPVLQLRDFEKTKELQPGESQELKLTLTRKDVSVWDVRRQNWVVPTAIDDKKGFTAWVGEASDKLKVACYTGEGRCVEGAKQPV
Km (purified protein; optimal conditions): 1990 µM | Vmax (purified protein; optimal conditions): 2.03 µmol/min/mg | kcat (purified protein; optimal conditions): 3.21 s⁻¹ | kcat/Km (purified protein; optimal conditions): 1610 M⁻¹ s⁻¹
